Test results as given in the supplement of paper PMC11502859.

Test system: HEK293T
Assay: median enrichment of reporter reads in eGFP-reduced (low/intermediate) vs eGFP-high sorted cells (eGFP-extension fusion abundance) (ratio); higher = stronger loss of eGFP-fusion protein abundance (more destabilising extension)
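Note: lentiviral eGFP-IRES-mCherry reporter pool sorted by FACS 96 h post-transduction, gated on mCherry-high cells, Illumina read counts normalized per million, median across four biological replicates.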

First: LPAASLHAPRSSLHGSPGRWQTMLRLHQGHRGAEGPMGEERRALLGKVGFLDPRDKLFRCHNVEESTWGTTVLVQVGLGKCTS [IGHMBP2]
Second: LPAIDNVAGTSASPLQPSNFPGTLLSAPEEGAVVSCCLWAPASSAVLGSVLLASVNNKATVCSGICGFVHSVTCHLHRALMAG [MCM5]
The median enrichment of the first is lower: 3.92 for the first, 5.35 for the second.

Compared with “LPARPHGQPVASCRPHSPGTVSCLCVRPPLPCLLRHPPPHIHTQRFDKLLVFNE [SMTN]”, “LPCSSTVTTRQALLSAEGVIPGPPVCVIVTMPCRDILEATHGWRNPEPPPQPTWLFVDSRRQGCAWLLTCC [PFKFB4]” is higher in median enrichment: 7.46 for the first, 11.1 for the second.

Compared with LPDFGAAEAT [ELP6], LPEKLCQLQGGSDFRKVV [HERPUD2] is higher in median enrichment: 0.429 for the first, 0.919 for the second.

Going from LPF [SDHD] to “LPFSGLQPPPGWKPWGPSGLGGAASRERAPFSGLPPQHAAS [CDR2L]”, the median enrichment rises from 0.443 to 5.38.

First: LPGAGGWTC [PTH1R]
Second: LPGLRRTLWTECLRTSYSLMLNPFHFLSFHSWVDSDHKDSWGFPGRTLHLMEHLNCRFCFPPLPHVIIKL [LCE2B]
The median enrichment of the first is lower: 1.02 for the first, 6.36 for the second.

First: LPGPGFAPAPASGPPGSRCGGCGPRAGARRRRRRREGARPAGRNRSDSRQEPGTEPGTEQQVRPGPPRLGADSDALGGSRKGG [NKX6-2]
Second: LPHHTPDHQESQGCCFATHQHRFAQKLCPRLGRSYFKKTWFSWSRWLTPVIPALWEAKPDGS [COG7]
The median enrichment of the first is lower: 6.82 for the first, 8.59 for the second.

Going from LPLARSLPSVHRSQFHRWRRCLR [PIPOX] to “LPLKTVPLRDPKTLGIDTWASGRAQPWAGGLLRTQRCAWNHS [SLC4A3]”, the median enrichment rises from 10.5 to 31.

Compared with LPLPFTLT [ATF6B], “LPLVLYSNLFGNDSSTHRTACVRAHTHTHTHTHTHH [GNAO1]” is lower in median enrichment: 3.98 for the first, 3.16 for the second.

Going from “LPMTLSWGPPARPGTFLPNPQTHDSLPHRLPQRPPTHFILSGHPSDLDPPVRAFKAPNSGTRSAPLPRPRAGNFSLPDPALLF [SCRT2]” to LPNFTSSGESLTLNQRPSTALAPQTSP [ABCB5], the median enrichment falls from 6.07 to 0.355.

Compared with LPPLSPECNKHQIPCVK [POLR2I], LPR [ATXN2L] is lower in median enrichment: 2.23 for the first, 0.876 for the second.

Going from “LPRPQPGPRTSGHRWHQPLLQDHQSGAPRTLACVP [GSG1L]” to LPRWFQPRHTLVPT [DNAAF5], the median enrichment falls from 17.3 to 4.04.

Compared with “LPSASGSVVGQALIPALWGGSLYSLFGGMVTEFIVEPFSVQMLWLQIRNPTSPG [GOLGA3]”, LPSESGGKTPPSLCILNH [UGT3A1] is lower in median enrichment: 4.27 for the first, 0.835 for the second.

First: LPSRSTATQVYLPLPSNPFPRAIFISPNKRAPRK [HRC]
Second: LPSTCPWGQEHPRPQKRERKGQKKEEKKNVQKDFRSSHSYF [TOB2]
The median enrichment of the first is higher: 11.1 for the first, 0.26 for the second.

Compared with “LPVGCFTSTPAPPASNAHSTPNTTPCPTNAHSRAW [C1QB]”, LPVGVAGSSLQIWPARCLAGWTG [DOLPP1] is higher in median enrichment: 1.02 for the first, 8.63 for the second.

Compared with LPVRPAQPGPGPRFSTRTVHPASRSL [DLGAP3], LQCTIFSHLYYFFSACIT [HAO1] is lower in median enrichment: 17.6 for the first, 1.93 for the second.

Compared with LQGPLDL [OR56A3], LQIYVCYN [OR8I2] is higher in median enrichment: 0.31 for the first, 6.8 for the second.

Going from LQNPNLELPMLLSYKHTDSGYS [ATP11C] to LQPIYLFISLWGLTH [GUCY1A1], the median enrichment rises from 1.23 to 15.3.

Compared with LQPTWSTRAGP [KRT36], “LRAGEPHILTAPGLYPGHSRDRLVVEPGGAKKASCGPRTAAVRLPMSQAVCVVTAPLSVHLQQRQRRRLPPGRFSLFIC [ZMYND19]” is higher in median enrichment: 0.897 for the first, 6.85 for the second.

First: LRASPRRDGKKIYKYISF [CYP2U1]
Second: LRCQLPSEQAGGICHTAPPLG [SMPD4]
The median enrichment of the first is higher: 7.5 for the first, 2.92 for the second.

Going from LRGPSPPPMAGG [Degron KLHDC2] to LRICRRFPFMKH [CUL4A], the median enrichment rises from 5.1 to 8.83.

Compared with LRISQG [ESRRB], LRKLILLIFMTNLYICF [RGS18] is higher in median enrichment: 1.67 for the first, 14.1 for the second.

First: LRLIIYQEC [PKIB]
Second: LRLQCLLRRKIKFTSSKVTLEDRALGMSFFF [OR2C3]
The median enrichment of the first is higher: 6.92 for the first, 4.08 for the second.

First: LRLSISRDMVLTQQFPVMAKCSI [IL13RA2]
Second: LRMKQLLSGPALPHSCASSALLSSQT [LCN12]
The median enrichment of the first is higher: 41.5 for the first, 30.4 for the second.

First: LRMWKITCFYLELFNLKIRNCFLLLSQ [CCDC34]
Second: LRPGHPDVLLKGAPRAGRGL [CBLC]
The median enrichment of the first is higher: 26.1 for the first, 1.91 for the second.

First: LRPHKHYGRSVGPQHGLPSGRPVLPEEGPACWPGACRHC [ZGPAT]
Second: LRQRQHQCRACPAALSLHALRAPLLLRYPFETSGAGPLPASLTIPRPLSHLGLGKPDSTQDQGSHEARRLRGSCPFSYSRA [SHOX2]
The median enrichment of the first is higher: 6.53 for the first, 5.48 for the second.

Compared with LRRGGKREKMERGAGNGGERTSKETEMKT [ZSWIM9], “LRRGPGSLRACEEHLLPKNVWFFFLFCFRFSSFEEQREIKRRPPGRGAFSQRLGRFPKSRVPASPAEFTSVPEAAVSSS [BIN1]” is higher in median enrichment: 1.53 for the first, 7.66 for the second.

Compared with LRRIQICVCVCVCVCVCVCVCVSLCLCIG [KIFC1], “LRRRMSLRAPSWSGPRHPGTSALPPPALLHHMSS [ADHFE1]” is lower in median enrichment: 24.3 for the first, 18.5 for the second.

Compared with LRRVLSNLFFFFLYLHLQPQLSHFSP [MTMR11], LRSLI [BAMBI] is lower in median enrichment: 11.6 for the first, 7.1 for the second.

First: LRSRRDEAASPFSASPPAQGPSGGACRTCPGTVAPQACLSCRVPMAWSLHLTDWSPLPDSHFQKLGGRDTWKTPVTSFLLRA [DPM2]
Second: LRVAFFLL [GTF2A1]
The median enrichment of the first is lower: 4.89 for the first, 6.78 for the second.
